This is an account of results in patent US20080292639A1 (Amgen, published 2008).

The term koff denotes the first-order rate constant of dissociation. Low values mean a long-lived complex, high ones a short-lived complex. The Kd is the constant that tells how readily two partners part at equilibrium. A high value points to lower affinity. Broadly, the kon is a measure of how fast the partners come together. A lower kon goes with slow association. By EC50 is commonly meant the concentration that produces a half-maximal response. Lower therefore signals a more potent agent.

Some results are limits rather than exact numbers.

Assay [1] deals with T1, native amyloid plaques in unfixed brain sections of Tg2576 APP transgenic mice (human, UniProt P05067 672-713, limits assumed). Description: cell-based or functional assay.
T1 sequence (P05067 672-713 limits assumed): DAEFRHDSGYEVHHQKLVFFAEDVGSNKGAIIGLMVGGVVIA
Assay [2] concerns the target T2, human Aβ40 fibrils (human, UniProt P05067 672-711).
T2 construct: domain: Aβ40; Aggregated (fibrillar) form; also called Fibrillar Aβ40; Aβ40 aggregate
Kind of assay: BIAcore, antibody injected over immobilized Aβ aggregates. On the procedure:
(§1) Preparation of BIacore Chip Surfaces: Immobilization of Proteins to a Biacore sensor chip (CM5) was performed according to manufacturer's instructions. Briefly, carboxyl groups on the sensor chip surfaces were activated by injecting 60 μL of a mixture containing 0.2 M N-ethyl-N′-(dimethylaminopropyl)carbodiimide (EDC) and 0.05 M N-hydroxysuccinimide (NHS). Specific surfaces were obtained by injecting rProtein G (Pierce), goat anti-mouse Fc (Jackson Immuno Research Lab) or Aβ aggregates diluted in 10 mM acetate, pH 4.0 at concentrations between 5 and 20 μg/mL. Excess reactive groups on the surfaces were deactivated by injecting 60 μL of 1 M ethanolamine. Final immobilized levels were about 10000 resonance units (RU) for the Protein G and anti-mouse Fc surfaces, and 400 RU for the Aβ aggregates surfaces. A blank, mock-coupled reference surface was also prepared on the sensor chips for background subtraction.
(§2) Kinetic analysis of antibodies binding to immobilized Aβ aggregates: Antibodies were diluted in PBS+0.005% P-20+0.1 mg/mL BSA from 100 nM to 0.2 nM. The samples at each concentration were injected over the immobilized Aβ aggregate surfaces, as well as over a blank surface for background subtraction. After a 15-minute dissociation, the surface was regenerated by injecting 8 mM glycine, pH 3.0, and 1 M NaCl for 30 seconds.
On the technique in general: In SPR one partner is held on a chip, and binding of the other changes the refractive index at the surface.

Assay [3] has as its target T3, human Aβ42 fibrils (human, UniProt P05067 672-713).
T3 construct: domain: Aβ42; Aggregated (fibrillar) form; also called Fibrillar Aβ42; Aβ42 aggregate
Described as above. On the procedure:
as §1, §2

The target in assay [4] is T4, human Aβ40 monomer (human, UniProt P05067 672-711).
T4 construct: domain: Aβ40; Monomeric form
T4 sequence (P05067 672-711 limits assumed): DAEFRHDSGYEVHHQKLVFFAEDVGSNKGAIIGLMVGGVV
Kind of assay: BIAcore, antibody captured on protein G or anti-mouse Fc, Aβ monomer injected. How it is done: as §1
(§3) Kinetic analysis of Aβ monomers binding to protein G captured antibodies: The kinetic analysis of the interaction between Aβ monomers and antibodies was performed as follows: 2.1A and mAb 2.1 were diluted in PBS+0.005% P-20+0.1 mg/mL BSA and injected over the immobilized protein G or anti-mouse Fc surfaces. Aβ monomers were diluted in PBS+0.005% P-20+0.1 mg/mL BSA from 1000 nM to 2 nM, and each concentration was injected over the captured antibody surfaces. After 3 minutes dissociation, each surface was regenerated by injection of 10 mM glycine, pH 1.5.

Assay [5] addresses T5, human Aβ42 monomer (human, UniProt P05067 672-713).
T5 construct: domain: Aβ42; Monomeric form
The description is as above. How it is done: as §1, §3

Assay [6] addresses amyloid plaques in unfixed brain sections of a human AD patient (human, UniProt P05067 672-713). Description: cell-based or functional assay.
For assay [7], the target named is T1, native amyloid plaques in unfixed brain …. Kind of assay: cell-based or functional assay. This is another data set of the same source.
Assay [8] has as its target T2, human Aβ40 fibrils. Description: BIAcore, antibody injected over immobilized Aβ fibrils. On the procedure:
as §1, §2
(§4) The kinetic analysis assay as described above was repeated using various humanized versions of anti-Aβ antibodies (2.1 chimera, 2.1 B, 2.1 C, 2.1 D, 2.1 E, 2.1 F, 2.1 G, 2.1 E.K5, 2.1E.K5R, 2.1 G.K5, 2.1 G.K5R, 2.1 I.K5R and 2.1 L).

Assay [9] deals with T3, human Aβ42 fibrils. The description is as above. How it is done:
as §1, §2, §4

Assay [10] deals with T2, human Aβ40 fibrils. Kind of assay: ELISA on plate-dried fibrils, time-resolved europium fluorescence. On the procedure: (§5) The fibrils (Aβ or collagen) were diluted to 10 μg/ml in water and mixed thoroughly. The solution was aliquoted into the wells of a microtiter plate (Immulon-2; VWR; Cat # 62404-972) at 50 μl per well (resulting in 0.5 μg fibrils/well final). The plate was dried overnight by being placed uncovered in a 37° C. incubator.
(§6) The wells were blocked with 200 μl of blocking solution and incubated for ≧1 hour at room temperature (RT) with shaking. The blocking solution was flicked out and gently dried on a paper towel. 100 μl of primary antibody diluted in PBS containing 10% blocking solution was added to each well and the plate was incubated at RT for 1 hour with shaking. The plate was washed with 5-10× in TBS, pH 7.5+0.05% Tween 20. 100 μl of secondary antibodies (each diluted 1-2,000-fold in PBS) was added to each well and the plate was incubate at RT for 1 hour with shaking. The plate was washed with 5-10× in TBS, pH 7.5+0.05% Tween 20. 100 μl Streptavidin-Europium reagent (1-1,000-fold dilution) was added and the plated was incubated at RT for 45 minutes with shaking. The plate was washed 5-10× in TBS, pH 7.5+0.05% Tween 20. 120 μl Enhance Solution was added and the plate was incubated at RT for 15-30 minutes with shaking. The plate was read on a Victor TRF plate reader (Europium program).
A general note: An ELISA detects its analyte on a solid surface through an enzyme-linked reagent.

In assay [11] the target is T3, human Aβ42 fibrils. The description is as above. How it is done:
as §5, §6

The target of assay [12] is T4, human Aβ40 monomer. Kind of assay: ELISA on plate-coated monomer, time-resolved europium fluorescence. On the procedure:
(§7) The same techniques were used for the coating of the microtiter plate for monomer ELISA. The fibrils Aβ monomer were diluted to 2.5 μg/ml in Coating buffer and mixed thoroughly. The solution was aliquoted into the wells of a microtiter plate [Immulon-2; VWR; Cat.#62404-972] at 100 μl per well. The plate was sealed and incubated overnight at 4° C. The plate was washed 5-10× to remove Aβ coating solution prior to starting the assay.
as §6

In assay [13] the target is T5, human Aβ42 monomer. Described as above. How it is done: as §7, §6
The target in assay [14] is T1, native amyloid plaques in unfixed brain …. Description: immunohistochemistry on unfixed Tg2576 mouse brain sections.

T5 sequence (P05067 672-713 limits assumed): as the sequence (P05067 672-713 limits assumed) above
T3 sequence (P05067 672-713 limits assumed): as above
T2 sequence (P05067 672-711 limits assumed): as the sequence (P05067 672-711 limits assumed) above
Chain of amyloid plaques in unfixed brain sections of a human AD patient (P05067 672-713): as the sequence (P05067 672-713 limits assumed) above

B1: murine monoclonal anti-amyloid antibody 2.1 (antibody, mouse IgG1, kappa, V domains shown)
VH: QVTLKESGPGILKPSQTLSLTCSFSGFSLRTSGMGVGWIRQPSGKGLEWLAHIWWDDDKSYNPSLKSQLTISKDTSRNQVFLKITSVDTADTATYYCARRNYYYDDYFAYWGQGTTLTVSS
VL: DVLMTQTPLSLPVSLGDQASISCRSSQSIVHSNGNTYLEWYLQKPGQSPKLLIYKVSNRFSGVPDRFSGSGSGTDFTLKISRVEAEDLGVYYCFQGSHVPLTFGAGTKLELKR
notes: also called mAb 2.1; 2.1 murine
As for B1, the “EC50 of antibody induced phagocytosis of amyloid” value in assay [1] was 0.4 µg/mL. Further, the koff was below 5e-05 s⁻¹ with human Aβ40 fibrils [2], below 5e-05 s⁻¹ with human Aβ42 fibrils [3], 0.0041 s⁻¹ with human Aβ40 monomer [4] and 0.00072 s⁻¹ with human Aβ42 monomer [5]. In addition, the Kd came to 42 nM in the assay with human Aβ40 monomer [4] and 17 nM in the assay with human Aβ42 monomer [5]. For the same molecule, the kon with human Aβ40 monomer [4] stood at 98000 M⁻¹ s⁻¹; with human Aβ42 monomer [5], 42000 M⁻¹ s⁻¹.

B2: 2.1 A (antibody, human IgG1, kappa)
heavy: not shown
light: DVLMTQSPLSLPVTLGQPASISCRSSQSIVHSNGNTYLEWYLQRPGQSPKLLIYKVSNRFSGVPDRFSGSGSGTDFTLKISRVEAEDVGVYYCFQGSHVPLTFGAGTKLEIKRTVAAPSVFIFPPSDEQLKSGTASVVCLLNNFYPREAKVQWKVDNALQSGNSQESVTEQDSKDSTYSLSSTLTLSKADYEKHKVYACEVTHQGLSSPVTKSFNRGEC
notes: Humanized IgG
As for B2, the “EC50 of phagocytosis by IC-21 cells on human AD brain sections” value in [6] was found to be 0.72 µg/mL. The “EC50 (µg/ml), ex vivo phagocytosis” value in assay [7] was 0.83 µg/mL. Also, the koff with human Aβ40 fibrils [8] is below 5e-05 s⁻¹; with human Aβ42 fibrils [9] it was below 5e-05 s⁻¹; in the assay with human Aβ40 fibrils [2] it was below 5e-05 s⁻¹; with human Aβ42 fibrils [3], below 5e-05 s⁻¹; with human Aβ40 monomer [4], 0.0094 s⁻¹; in the assay with human Aβ42 monomer [5], 0.0049 s⁻¹. The EC50 was found to be 0.065 nM with human Aβ40 fibrils [10], 0.074 nM with human Aβ42 fibrils [11], 0.029 nM in the assay with human Aβ40 monomer [12] and 0.031 nM in the assay with human Aβ42 monomer [13]. In addition, the results for the Kd in the assay with human Aβ40 monomer [4] and with human Aβ42 monomer [5] were 68 nM and 50 nM, respectively. The kon in the assay with human Aβ40 monomer [4] turned out to be 140000 M⁻¹ s⁻¹; with human Aβ42 monomer [5], 98000 M⁻¹ s⁻¹.

B3: 2.1 N (antibody, human IgG1, kappa, V domains shown)
VH: QVTLKESGPALVKPTQTLTLTCTFSGFSLRTSGMGVGWIRQPPGKGLEWLAHIWWDDDKSYNPSLKSQLTISKDTSKNQVVLTMTNMDPVDTATYYCARRNYYYDDYFAYWGQGTTLTVSS
VL: DVVMTQSPLSLPVTLGQPASISCRSSQSIVHSNGNTYLEWFQQRPGQSPRRLIYKVSNRFSGVPDRFSGSGSGTDFTLKISRVEAEDVGVYYCFQGSHVPLTFGQGTKLEIKR
notes: Humanized IgG
In the case of B3, the binding result in assay [14] is “no binding (tested: 1 µg/ml)”.
